One experiment deals with T1, FLRT2 (in supernatants) (human, UniProt O43155 36-541).
T1 sequence: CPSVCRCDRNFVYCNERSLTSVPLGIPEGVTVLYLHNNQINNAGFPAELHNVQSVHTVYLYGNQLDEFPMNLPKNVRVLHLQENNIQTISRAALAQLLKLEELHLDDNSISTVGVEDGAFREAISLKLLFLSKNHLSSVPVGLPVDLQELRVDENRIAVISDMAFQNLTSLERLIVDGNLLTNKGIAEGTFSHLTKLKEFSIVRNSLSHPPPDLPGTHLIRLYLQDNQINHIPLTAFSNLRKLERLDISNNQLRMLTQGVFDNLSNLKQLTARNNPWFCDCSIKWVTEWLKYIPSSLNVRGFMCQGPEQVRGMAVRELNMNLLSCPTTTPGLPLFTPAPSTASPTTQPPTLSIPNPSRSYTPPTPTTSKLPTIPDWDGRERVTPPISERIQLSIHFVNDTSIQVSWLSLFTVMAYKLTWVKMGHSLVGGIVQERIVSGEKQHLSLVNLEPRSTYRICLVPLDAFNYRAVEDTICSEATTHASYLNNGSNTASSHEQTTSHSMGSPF
Briefly: cell-based immunofluorescence validation (FIG. 17): receptor in supernatants, KCP on cells.

A further experiment has as its target T2, FLRT1 (in supernatants) (human, UniProt Q9NZU1 49-552).
T2 sequence: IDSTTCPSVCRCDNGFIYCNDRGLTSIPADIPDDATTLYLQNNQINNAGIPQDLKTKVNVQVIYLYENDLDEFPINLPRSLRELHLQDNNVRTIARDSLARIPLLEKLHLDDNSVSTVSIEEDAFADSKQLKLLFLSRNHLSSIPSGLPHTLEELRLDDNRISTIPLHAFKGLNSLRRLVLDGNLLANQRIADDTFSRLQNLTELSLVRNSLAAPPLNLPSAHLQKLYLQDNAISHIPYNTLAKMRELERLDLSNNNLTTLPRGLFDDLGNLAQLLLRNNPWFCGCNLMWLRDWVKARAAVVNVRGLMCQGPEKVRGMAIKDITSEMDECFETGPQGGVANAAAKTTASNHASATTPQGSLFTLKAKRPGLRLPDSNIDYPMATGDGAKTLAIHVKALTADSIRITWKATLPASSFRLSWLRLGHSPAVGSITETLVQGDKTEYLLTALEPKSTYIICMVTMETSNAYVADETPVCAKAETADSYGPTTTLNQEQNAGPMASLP
The experiment is described as above.

B1: HHV8 protein KCP expressed on cells (gD-GPI construct or full-length protein) (other)
chain: QDNEKCSQKTLIGYRLKMSRDGDIAVGETVELRCRSGYTTYARNITATCLQGGTWSEPTATCNKKSCPNPGEIQNGKVIFHGGQDALKYGANISYVCNEGYFLVGREYVRYCMIGASGQMAWSSSPPFCEKEKCHRPKIENGDFKPDKDYYEYNDAVHFECNEGYTLVGPHSIACAVNNTWTSNMPTCELAGCKFPSVTHGYPIQGFSLTYKHKQSVTFACNDGFVLRGSPTITCNVTEWDPPLPKCVLEDIDDPNNSNPGRLHPTPNEKPNGNVFQRSNYTEPPTKPEDTHTAATCDTNCEQPPKILPTSEGFNETTTSNTITKQLEDEKTTSQPNTHITSALTSMKAKGNFTNKTNNSTDLHIASTPTSQDDATPSIPSVQTPNYNTNAPTRTLTSLHIEEGPSNSTTSEKATASTLSHNSHKNDTGGIYTTLNKTTQLPSTNKPTNSQAKSSTKPRVETHNKTTSNPAISLTDSADVPQRPREPTLPPIFRPPASKNRYL
notes: also called HHV8 KCP
Turning to B1, the binding result with FLRT2 (in supernatants) and with FLRT1 (in supernatants) was “binds” in each case.

The record behind these values is patent US20240011017A1 (Genentech, published 2024).
